The data set addresses Glypican-3 (GPC3) (UniProt P51654). Description: filter. The following applies: n = BzdU (benzyl-modified dU); unit not given; Bmax 0.79; SB18T0.05, 37 C; 32P-labelled aptamer, protein titrated from 100 nM.

Sequence of Glypican-3 (GPC3) (P51654 25-554): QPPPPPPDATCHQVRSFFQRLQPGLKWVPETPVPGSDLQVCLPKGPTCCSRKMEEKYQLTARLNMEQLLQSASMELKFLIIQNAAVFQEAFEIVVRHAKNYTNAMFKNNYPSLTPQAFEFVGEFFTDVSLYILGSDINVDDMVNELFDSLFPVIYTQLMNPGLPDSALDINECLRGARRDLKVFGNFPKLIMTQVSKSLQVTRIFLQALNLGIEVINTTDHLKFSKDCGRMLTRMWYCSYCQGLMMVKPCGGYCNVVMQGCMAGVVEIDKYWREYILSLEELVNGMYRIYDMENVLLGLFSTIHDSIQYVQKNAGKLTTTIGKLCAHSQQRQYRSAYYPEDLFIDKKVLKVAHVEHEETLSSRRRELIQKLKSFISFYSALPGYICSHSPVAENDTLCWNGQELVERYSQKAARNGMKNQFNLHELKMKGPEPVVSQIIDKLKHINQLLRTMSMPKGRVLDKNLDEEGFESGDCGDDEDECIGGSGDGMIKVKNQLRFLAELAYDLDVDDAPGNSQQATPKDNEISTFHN

In turn, “GGGAAGTGAATGCGTTGAATTATGTCCCTTCAGTCATCAC [2428-12-10 (12-10)]” gave a Kd of 1.5.

Values taken from patent publication US20230127087.
